From patent US20180038857A1 (published 2018)
Bridge positions count the residues as written; N and C are the ends. * marks the point of attachment. Biotin = O=C1N[C@H]2[C@H](CS[C@H]2CCCCC(=O)*)N1

Tests used:
Assay in all cases: cell depletion on chemokine-streptavidin Sepharose column, flow cytometry for CCR1, 3 and 5-expressing cells
hCCR3 = target: T1, hCCR3 (human, UniProt P51677 1-355)
T1 construct: whole, on cells
T1 sequence (looked up): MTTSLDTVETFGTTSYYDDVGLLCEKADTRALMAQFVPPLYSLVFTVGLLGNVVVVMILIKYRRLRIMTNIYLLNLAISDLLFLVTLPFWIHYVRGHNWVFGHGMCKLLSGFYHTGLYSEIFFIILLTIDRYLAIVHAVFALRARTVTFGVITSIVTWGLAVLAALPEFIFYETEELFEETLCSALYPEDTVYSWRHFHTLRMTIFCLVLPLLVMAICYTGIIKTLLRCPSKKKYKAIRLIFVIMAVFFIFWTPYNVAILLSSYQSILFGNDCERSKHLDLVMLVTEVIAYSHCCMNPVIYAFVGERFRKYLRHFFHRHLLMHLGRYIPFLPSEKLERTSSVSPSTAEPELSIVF
Description: (§1) To investigate the ability to eliminate CCR1, 3 and 5-expressing cells, in vitro tests have been performed on the biotinylated RANTES coupled matrix. Blood was collected from blood donors and passed through the column device containing biotinylated RANTES coupled matrix. Blood samples were taken before and after column passage and analyzed by flow cytometry (FACS) for the depletion of CCR1, 3 and 5-expressing cells.
(§2) Depletion tests were performed on blood from a healthy donor.

hCCR5 = target: T2, hCCR5 (human, UniProt P51681 1-352)
T2 construct: whole, on cells
T2 sequence (P51681 whole entry): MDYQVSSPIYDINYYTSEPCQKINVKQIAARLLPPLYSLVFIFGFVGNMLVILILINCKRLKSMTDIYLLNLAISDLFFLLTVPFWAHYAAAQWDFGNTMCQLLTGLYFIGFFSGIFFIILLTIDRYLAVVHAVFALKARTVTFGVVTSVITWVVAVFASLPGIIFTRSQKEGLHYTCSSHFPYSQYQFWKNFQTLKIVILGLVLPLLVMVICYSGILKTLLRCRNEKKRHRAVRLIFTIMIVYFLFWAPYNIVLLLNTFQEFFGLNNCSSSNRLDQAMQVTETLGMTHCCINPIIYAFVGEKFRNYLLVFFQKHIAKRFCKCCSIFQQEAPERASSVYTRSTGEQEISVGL
Description: as §1, §2

CCR1 = target: T3, CCR1 (human, UniProt P32246 1-355)
T3 construct: whole, on cells; Endogenous receptor on blood cells in the RANTES depletion test
T3 sequence (looked up): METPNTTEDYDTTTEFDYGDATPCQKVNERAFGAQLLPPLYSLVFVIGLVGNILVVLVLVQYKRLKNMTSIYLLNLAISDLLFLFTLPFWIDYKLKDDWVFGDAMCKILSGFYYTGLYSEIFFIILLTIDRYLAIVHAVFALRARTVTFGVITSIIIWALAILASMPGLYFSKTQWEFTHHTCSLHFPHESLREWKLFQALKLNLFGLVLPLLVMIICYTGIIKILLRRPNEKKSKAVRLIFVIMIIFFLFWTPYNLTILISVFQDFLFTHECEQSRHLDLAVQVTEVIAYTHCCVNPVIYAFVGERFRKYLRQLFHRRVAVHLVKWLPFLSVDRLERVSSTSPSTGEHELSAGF
Description: as §1, §2

Measured: reduction of chemokine receptor-expressing cells by the column

B1: biotinRANTES (CCL5): RANTES derivatised at the ε-amino side chain functionality of Lys(67) with Biotin (ligand)
chain: H-SPYSSDTTPCCFAYIARPLPRAHIKEYFYTSGKCSNPAVVFVTRKNRQVCANPEKKWVREYINSLEK(Biotin)S-OH
modifications: disulfide 10-34, 11-50; also: TFA salt
notes: It is treated here as the same molecule; also called biotinylated RANTES
~20%: all assays above
